Source: patent US6887705B1, “Tyrosine phosphorylated cleavage furrow-associated proteins (PSTPIPs)” (Genentech, Inc., priority 1997, dated 2005)
Where a chain is given by its changes, count along the chain named.

How the values were obtained:
Assay in all cases: in vitro translated PTP HSCF mutant precipitated with 1 or 10 µg/ml GST PST PIP
[1] = biological target: T1, PTP HSCF with R444 mutated to alanine, HA tagged (UniProt Q61152 1-453)
T1 construct: range 1-453; also called HSCF R444
T1 sequence (looked up): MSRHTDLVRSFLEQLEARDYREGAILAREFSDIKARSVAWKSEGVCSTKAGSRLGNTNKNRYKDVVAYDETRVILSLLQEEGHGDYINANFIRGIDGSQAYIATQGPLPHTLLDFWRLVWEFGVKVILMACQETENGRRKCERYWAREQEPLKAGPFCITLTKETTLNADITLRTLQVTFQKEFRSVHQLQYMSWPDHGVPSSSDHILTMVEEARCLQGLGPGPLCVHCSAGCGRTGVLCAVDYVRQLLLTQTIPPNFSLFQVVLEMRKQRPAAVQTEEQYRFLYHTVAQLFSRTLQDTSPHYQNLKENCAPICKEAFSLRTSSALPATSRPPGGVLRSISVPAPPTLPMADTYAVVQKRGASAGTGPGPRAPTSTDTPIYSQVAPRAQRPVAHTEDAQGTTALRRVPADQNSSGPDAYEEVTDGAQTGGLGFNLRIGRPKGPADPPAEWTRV
Protocol: (§1) Multiple bands precipitated with the GST PST PIP fusion protein are apparently C-terminal proteolyzed products of the PTP. Also shown are GST PST PIP precipitations (10 μg/ml) performed on a double mutant of PTP HSCF (R+W) with both residues $R444$ and $W450$ mutated to alanine (bottom panel FIG. 14 A/2). B. COS cells were co-transfected with a 10:1 ratio of plasmids encoding hemagglutinin (HA) tagged PTP HSCF with the illustrated alanine substitutions or a mutant of PTP HSCF deleted for the C-terminal 24 amino acids (PTP $HSCFD24$) and wild type PST PIP with a C-terminal FLAG epitope tag, respectively. Transfected cell lysates were immunoprecipitated with anti-HA monoclonal antibodies and the precipitates were blotted with anti-PST PIP polyclonal antibody to detect the relative amounts of PST PIP complexed with either wild type or different mutant forms of PTP HSCF. Lysates were also immunoprecipitated with anti-HA antibody and blotted with the same antibody to insure equal expression of PTP HSCF. Equal expression of PSTPIP was determined by immunoprecipitating lysates with anti-FLAG monoclonal antibody and blotting with anti-PST PIP polyclonal antibody.
(§2) In vitro binding analyses between various PTP HSCF and PST PIP constructs were performed as previously described (Spencer et al, (1997), supra). Briefly, plasmids were transcribed and translated in vitro using the TnT Rabbit Reticulocyte Lysate System (Promega). Samples were diluted in 50 mM HEPES, pH 7.2, 1% triton X-100, 10% glycerol, 100 mM NaCl, and 2 µg/ml each of leupeptin, pepstatin, aprotinin and PMSF (lysis buffer). Samples were than reacted with GST fusion proteins at various concentrations, and the bound proteins were centrifuged using glutathione-sepharose beads and analyzed on SDS polyacrylamide gels. C-terminally-derived peptide inhibition studies were performed by incubating the GST fusion protein binding reactions in the presence of 10 µg/ml of the indicated peptides. Peptides were produced by FMOC-protected amino acids as previously described (Spencer et al, (1997), supra). In vivo interactions between various forms of PTP HSCF and PST PIP were also performed as previously described (Spencer et al, (1997), supra).

[2] = biological target: T2, PTP HSCF with P443 mutated to alanine, HA tagged (UniProt Q61152 1-453)
T2 construct: range 1-453; also called HSCF P443
T2 sequence (looked up): T1 sequence (looked up) with P443A, A444R
Protocol: as §1, §2

[3] = biological target: T3, PTP HSCF with G442 mutated to alanine, HA tagged (UniProt Q61152 1-453)
T3 construct: range 1-453; also called HSCF G442
T3 sequence (looked up): T1 sequence (looked up) with G442A, A444R
Protocol: as §1, §2

[4] = biological target: T4, PTP HSCF with R436 mutated to alanine, HA tagged (UniProt Q61152 1-453)
T4 construct: range 1-453; also called HSCF R436
T4 sequence (looked up): T1 sequence (looked up) with R436A, A444R
Protocol: as §1, §2

Measured: binding result

B1: GST-PSTPIP (GST fusion of full-length PSTPIP, amino acids 2-415) (other)
chain: MAQLQFRDAFWCRDFTAHTGYEVLLQRLLDGRKMCKDVEELLRQRAQAEERYGKELVQIARKAGGQTEMNSLRTSFDSLKQQTENVGSAHIQLALALREELRSLEEFRERQKEQRKKYEAIMDRVQKSKLSLYKKTMESKKAYDQKCRDADDAEQAFERVSANGHQKQVEKSQNKAKQCKESATEAERVYRQNIEQLERARTEWEQEHRTTCEAFQLQEFDRLTILRNALWVHCNQLSMQCVKDDELYEEVRLTLEGCDVEGDINGFIQSKSTGREPPAPVPYQNYYDREVTPLIGSPSIQPSCGVIKRFSGLLHGSPKTTPSAPAASTETLTPTPERNELVYASIEVQATQGNLNSSAQDYRALYDYTAQNSDELDISAGDILAVILEGEDGWWTVERNGQRGFVPGSYLEKL
notes: Made in DH5-alpha bacteria from pGEX4T-2; also called GST-full-length PSTPIP; GST PTP PIP; not shown: glutathione S-transferase encoded by pGEX-4T-2 (Pharmacia)
binds: all assays above
